Tested on: DAKAR-FLAG fusion protein (murine DAKAR residues 1 to 786 fused to FLAG)

Substance | cleavage products on SDS-PAGE / Western blot after in vitro incubation with the caspase
purified recombinant active caspase 3 (Pharmingen) | in vitro incubation of DAKAR with 100 ng caspase 3 resulted in formation of approximately 40 and 45 kDa cleavage products
purified recombinant active caspase 8 (Pharmingen) | incubation of DAKAR with 100 ng caspase 8 resulted in the formation of a 22 kDa cleavage product

Source: patent US20030087411
